Assay results from the supplement of paper PMC9170038.

Tested on: MS2 coat protein
Experiment: apparent KD of MS2 coat protein; designed switch direction (-1 OFF switch, 1 ON switch): 1; higher = weaker reporter binding
Method in brief: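 Stalled E. coli RNA polymerase transcribed designed RNA switches on Illumina chips, which were then titrated with SNAP-549-labelled MS2 coat protein, doubling from 0.7 or 1.5 nM to 3 µM. Steps lasted from 0.8–1.5 h at the lowest concentration to 10–20 min at the highest. The apparent KD is each design's median over clusters of curve-fitted normalised fluorescence.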

[1] = input ligand: microRNA oligo, concentration not stated
[2] = Eterna round: R95, input ligand: FMN 200 uM
[3] = Eterna round: R95, input ligand: microRNA oligo, concentration not stated
[4] = Eterna round: R95, input ligand: none

Sequence | apparent KD of MS2 coat protein (input ligand: FMN 200 uM) | apparent KD of MS2 coat protein [1] | apparent KD of MS2 coat protein (input ligand: none) | apparent KD of MS2 coat protein [2] | apparent KD of MS2 coat protein [3] | apparent KD of MS2 coat protein [4]
ACAUGAAAGGCAGGAUAUUUUGUACCUACAUGUGACAUGAGGAUCACCCAUGUGGUAAGUAUAAGAGAGAAGGGUCAGAUAUGU [Equivalence 2 - Jieux - Same State NG 2] (Eterna round: R96, puzzle: Same State NG 2) | 28.9 nM | 31.7 nM | 37.2 nM |  |  | 
GGAUGAUGGACAGGAUAUUGAUUUUAAUGGUUUCAAGAAGGGUCUUUGAUUUAAACGACCAGUUACAUGAGGAUCACCCAUGUU [JR_SSNG1_Sub032] (Eterna round: R96, puzzle: Same State NG 1) | 40.1 nM | 36.1 nM | 52 nM |  |  | 
UGACACACGGCAGGAUAUGCUUAGCAAAGCUAAGCAGAAGGGCCUCAUGUCGUGGAAACGUGACAUGAGGAUCACCCAUGUUGC [Omei SS(NG)1 Cv2] (Eterna round: R96, puzzle: Same State NG 1) | 306 nM | 46.8 nM | 57.9 nM |  |  | 
UGGCUCAGACUAGGAUAUACGUGGUCACAUGAGGAUCACCCAUGUCUCGAGCUUCGGCUCGAGGCGUAGAAGGAGUCUGAGCCU [SSNG2/6-D3] (Eterna round: R96, puzzle: Same State NG 2) | 126 nM | 245 nM | 334 nM |  |  | 
GUUACAUGAGGAUCACCCAUGUAUGUGUGGGAGUAAGUGUCUUAGGAUAUCUAUCAUUUUAUUUAAGAGAAGGAAGAUUGUUGU [JMF's solution 93] (Eterna round: R96, puzzle: Same State NG 3) | 121 nM | 77.4 nM | 111 nM |  |  | 
GAGAAGAGGGACAAGGAUAUGUCAGGAGAGACAUGAGGAUCACCCAUGUAGAGGUUGGAGGAGAGACAGAAGGUGUAGGGAGCGA [JR_SS2_Sub012] (puzzle: Same State 2) |  |  |  | 50.1 nM | 57.2 nM | 98 nM
UGUUGUAUUACAGGAUAUCUAUUAGUUUUAGUUAGAGAAGGGUAUUCACAUGAGGAUCACCCAUGUAUAUACGAGGAAGUUGUG [JMF's solution 99] (Eterna round: R96, puzzle: Same State NG 1) |  | 34.6 nM |  |  |  | 
AAUUUAAUACAUGAGGAUCACCCAUGUAAUACUAGUAAGAUCUAGGAUAUCAGCUCGAAUAGAGCUGAGAAGGAGAUCACAUGU [SSNG3/19-C1] (Eterna round: R96, puzzle: Same State NG 3) | 24.2 nM | 63.9 nM | 82 nM |  |  | 
CGUAGGUAGCUGGAGGAUAUUCGAGUGGUAACAUGAGGAUCACCCAUGUGGAGUUAUUUACAUGAGGAGAAGGCUAGCUGCCUGC [JL-ss2-3.16 JL mod] (puzzle: Same State 2) |  |  |  | 14.3 nM | 107 nM | 136 nM
UGCAGCUACGUAGGAUAUCCGAAAGGAAGUGUAGGAGAAGGACGAGAGCCGCCUUACGUACAUGAGGAUCACCCAUGUAGUAGG [PowerStrip SSNG 1.22] (Eterna round: R96, puzzle: Same State NG 1) | 13.7 nM | 21.8 nM | 25.9 nM |  |  | 
GUAGCCGGCACUGAGGAUAUUCAUAUUUAAACAUGAGGAUCACCCAUGUAGGCCAGAAGGCCUUGGGAGAAGGCAGGUCGGCUCG [salish99_ss2_r3_081] (puzzle: Same State 2) |  |  |  | 20.7 nM | 210 nM | 294 nM
GAGAGAUGGCGAGGAUAUGCGGUGAUAAUGAUGGCAGAAGGCGCUGACAUGAGGAUCACCCAUGUGGGAAUAAUCCAGAGAGAG [Parity 17 - Jieux - Same State NG 1] (Eterna round: R96, puzzle: Same State NG 1) | 279 nM | 564 nM | 683 nM |  |  | 
UUAAUGAUGAAAGGAUAUACAUGAGGAAUUCUCGUAGAAGGUUCAUGACAUGAGGAUCACCCAUGUAUCGCUCGAAAGAGCGUA [Mat - Same State NG 1 - JL mod - D30] (Eterna round: R96, puzzle: Same State NG 1) | 149 nM | 11.6 nM | 47.1 nM |  |  | 
AAUUUAAUACAUGAGGAUCACCCAUGUAAUACUUGUAAGAUCAAGGAUAUCAGCUCGAUUAGAGCUGAGAAGGUGAUCACAUGU [SSNG3/19-D2] (Eterna round: R96, puzzle: Same State NG 3) |  | 21.6 nM |  |  |  | 
UUAAUUAAUUAAUUAUACAUGAGGAUCACCCAUGUAAGUGAUCAGGAUAUCAGCUCGUGUAGAGCUGAGAAGGGAUACAUGUAA [SSNG3/12-A4] (Eterna round: R96, puzzle: Same State NG 3) |  | 147 nM |  |  |  | 
AAUUGUUUCUGAGGAUAUCAGUAGUAUGCCAAUUGAGAAGGCAGUACAUGAGGAUCACCCAUGUUAUGGUUUGAUAGAAUGAUA [JR_SSNG1_Sub001] (Eterna round: R96, puzzle: Same State NG 1) | 74.8 nM | 51.2 nM | 54.1 nM |  |  | 

Sequence | apparent KD of MS2 coat protein (input ligand: FMN 200 uM) | apparent KD of MS2 coat protein [1] | apparent KD of MS2 coat protein (input ligand: none) | apparent KD of MS2 coat protein [2] | apparent KD of MS2 coat protein [3] | apparent KD of MS2 coat protein [4]
GGGCCAGCUUUUGCUGGGCCAAAGCUUGCACAUGAGGAUCACCCAUGUCGUGUACACGCUUCCUGCCCGUCUUGUUU [Photon Torp-20] (puzzle: Sensor for hsa-mir-208a) |  |  |  | 26.5 nM | 16.6 nM | 29.4 nM
UGUCCAGCCUGAGCUGGACAAAAGCAUGUACAUGAGGAUCACCCAUGUUCAUGUACAAGCUUUUUGCUCGUCUUACU [salish99_208a_r3_081] (Eterna round: R96, puzzle: Sensor for hsa-mir-208a) | 534 nM | 12.9 nM | 400 nM |  |  | 
AAUCGUUUGAUAGGAUAUCGCUAUACAUGAGGAUCACCCAUGUUUACCACGCUGGUUUUUCAUACCGAGAAGGAUUCUGAUGAU [JL JR sub007 mod 10] (Eterna round: R96, puzzle: Same State NG 2) | 36 nM | 31.2 nM | 35.2 nM |  |  | 
UUACAGUGCGGGUAGGAUAUGUAGGGUGGUACAUGAGGAUCACCCAUGUAUCCACCCUUCUACCGGCAGAAGGGCCUGUCACUGC [Enlaeror] (Eterna round: R96, puzzle: Same State 2) | 17.2 nM | 9.64 nM | 17 nM |  |  | 
AUUGCUAGCACAGGAUAUCAUGCGAAAAUUGCGUGAGAAGGGUGGACGCUGUCAUUCACGGAAGACAUGAGGAUCACCCAUGUC [SameState NG1 #77] (Eterna round: R96, puzzle: Same State NG 1) | 44.6 nM | 56.2 nM | 88.1 nM |  |  | 
GCGGAACAUGAGGAUCACCCAUGUGGAGGGUGUAAAGGAUAUUAUAGAGAGAAGGUAGGGUAAGAAGGUUGCUUGG [JR_SS1_Sub089] (puzzle: Same State 1) |  |  |  | 202 nM | 96 nM | 541 nM
UGAGCCGGCACUGAGGAUAUUCAUAUUAAAACAUGAGGAUCACCCAUGUAGGCCAGAAGGCCUUGGGAGAAGGCAGGUCGGCUCU [Mat - Same State 2 - Mod of UCT - D60] (puzzle: Same State 2) |  |  |  | 22.6 nM | 185 nM | 334 nM
AGAUCAUGACGAGGAUAUGGUACAUGAGGAUCACCCAUGUAUGUAUCAUAACGCGAAUGACGAAUCCAGAAGGCGUCGUGGUCA [JL SSNG2 1.12] (Eterna round: R96, puzzle: Same State NG 2) | 9.94 nM | 14.7 nM | 22.7 nM |  |  | 
GGUCCAGCUUUUGCUGGUCCUUCGCUUGCACAUGAGGAUCACCCAUGUCGUGUACAUGCUUCCUGCCCGUCUUUUUU [Photon Torp-17] (puzzle: Sensor for hsa-mir-208a) |  |  |  | 34.4 nM | 15.5 nM | 39.1 nM
AUAAGGCAAGCUUUUUUCUCGUAGUGUAAACAUGAGGAUCACCCAUGUGCUCGCCCUGGAUCUUUGGAUCGCAGAAA [Geedbigexe] (puzzle: Sensor for hsa-mir-208a) |  |  |  | 46.7 nM | 18.6 nM | 45.3 nM
GAGUAGUUGAAAGGAUAUCCAUUGUUAUAGAAUGGAGAAGGUUCUAACAUGAGGAUCACCCAUGUAGGACUAUUCCUGUGUAUC [Parity 81 - Jieux - Same State NG 1] (Eterna round: R96, puzzle: Same State NG 1) | 9.98 nM | 8.16 nM | 11.9 nM |  |  | 
GUAAAACAUGAGGAUCACCCAUGUAAUAUAAUGGGAGGAUAUCUGAUUUAAUUAAAUUUAAGAGAAGGCCUAAAUG [Mat - Same State 1 - Mod of Eli - D56] (puzzle: Same State 1) |  |  |  | 32.1 nM | 107 nM | 123 nM
AGCUAUUAAUCAGGAUAUGGUGACAUGAGGAUCACCCAUGUAUAGAUGAUUAAAUGUGGUCUAUACCAGAAGGGAUUACUAACA [SameState NG2 #52] (Eterna round: R96, puzzle: Same State NG 2) | 55.5 nM | 247 nM | 356 nM |  |  | 
GAGGGAUGAGCGUAGGAUAUAGGAGAAGUGACAUGAGGAUCACCCAUGUGGUAUGAGGGAUGAUUCUAGAAGGACGCGGUAGGAG [JR_SS2_Sub062] (puzzle: Same State 2) |  |  |  | 154 nM | 494 nM | 116 nM
CUCAAACAUGAGGAUCACCCAUGUGUUGUCAUGGGAGGAUAUCUAAGUUCAUUGUAUUCAGGAGAAGGCCUAUGUC [× ×•×ª×• ×ž×“×™× ×” × ×—×ª-08] (puzzle: Same State 1) |  |  |  |  | 284 nM | 
